In the DeepSol protein solubility set:

Test: soluble on expression in E. coli; label from the status in PepcDB or PDB records

Sequence | soluble on expression in E. coli
LTLRAGREQNIPMNLSDSWAARRPVTARVSAAEAVLADLRDAITSGELSVGERLPSEASLAARHGVSRSVIREALRSCHALGLTETKSGLGTFVVSDSIARDLDFGNYAANELVEARPHVEIPAAGWAAQRHTAEDLAALRGLVDQMRDEDDPLVWVSLDAQFHAFIARTSRNRVFESVIVDIREALTRQSETLNLVAGRQQKSNDEHDRIVEGIASGSYDKAARAMAEHLDAVRVALESVVGEAGPDRRQ | not soluble
MTDQPIIDYRFLEPLPRGIILAATPLGNIGDASPRLAQALAQAHVVAAEDTRRTRALAQALGVEITGQVLSNFDHNEQGRAQQLVEMARTHTVVVVTDAGMPIVSDPGFPLVEAAHKAGVPVTCFPGPSAVPTALALSGLHVGKFAFDGFAPRKQGQRRAWLESLQQEQRAVCFFESPHRIAATLADAAEVLGAKRRAAVARELTKTFEEVRRGGLGELAEWAAKGIKGEVSVVIEGVQHVQHEDVHSLVAVVEERVLAGERLKSACGEVAAHYGVSKKQLYDAVLESRAE | soluble
MEQDDPSGEWPLIAALPVRQDVPVDALLADVAAQLAAEGLRTAGFLQRDGVRLEDLTSGALYPITQDLGPGSSGCRLDPAGLALAAAAGLAALERGADLLVIPRFGKAEIEGEGMRGVIGRACELGVPTLVGVRQSAEPAWETFAGGLAEWIAPERQAVAGWCRTACAPVRCRTLEHHHHHH | not soluble
MAHHHHHHSLISNHFLRDLYAIIVDDVGRFKPSAILDVGCGTGTADYFILSAFPDISVDCIDPSPYMISIARKKLSKFGSRVRAELGSSRSIPFDRRYDFVFTSISFHHWKCREDGLRNMAKYVSDHGVLAVYEYYRPNLRSFHRVAGKHALTMEDVEKLNIEGFTKKYEIRGEMMRIMFQRDEG | soluble
GSHMHRVINHPYYFPFNGKQAEDYLRSKERGDFVIRQSSRGDDHLAITWKLDKDLFQHVDIQEMEKENPLAMGKVLVVEGQRYHDLDQIIVEYLQNKIRLLNE | soluble
MADVIEIRGPVYNGSDINDIIDTYGENNALTIDATKFAAFYYDIDDNVTTETLSILAVPGTEGNVIGEGGIVYETTIQQVDYEFYRPAAGWSNYSLIGFFAEKYIPINPDKADKLAKLVLDSDDKYTIRTGEQLDLGEGYSIEAKQVDVDGEKVWLEFTKDGEFVDDEIISVVSGSDNTWEVELDDIQDEDDVVVLRVHVNQVFQGAVDSIAQIEGLWLIDYTNAMKIESDDEFGNLDNVKINGDTLTITNEDTFTLTRDDEEEIAEGLFFKTADDTRALEHHHHHH | soluble
MKNTKLLLAIATSAALLTGCQNTHGIDTNMAISSGLNAYKAATLSDADAKAIANQGCAEMDSGNQVASKSSKYGKRLAKIAKALGNNINGTPVNYKVYMTSDVNAWAMANGCVRVYSGLMDMMNDNEIEGVLGHELGHVALGHSLAEMKASYAIVAARDAISATSGVASQLSRSQLGDIAEGAINAKYSRDKESEADDFSFDLLKKRGISTQGLVGSFEKLASLDGGRTQSMFDSHPPSTERAQHIRDRIASGKLEHHHHHH | soluble
GPGSGLTELQMRARRCPNRQARIDWSEGEVRSFYQALSQYGTDFSAIAVLFPSRSRRDIKRLYQREMRQKPKEVQAALNQKHPIDMAVFEVRYEAKKKEAQQPVKMKKLNSEELAFLDEIAGRQPSESAMHMKGEELEVPVPAATLGGVEEATAAPPSRLRKRPRGTHQADSEDGPESKRATKEIPPAADDDFDMEQESFFDMVVRHEREDNAPLDMLFAAQLEQGQQQHLAALEDSDFSFE | soluble
MAARRAPISRRDRPAKPALSRRWIVDTAVALMRAEGLEKVTMRRLAQELDTGPASLYVYVANTAELHAAVLDALLGEVDLTGAGAEEDWREQLRAVLTSYTLVLFAHPQLARSALVARPSGENYLRLVERVLELLARSGAPGAQVAWGVDKLLQDATATAAEQATQEHDPASHEDWSATVRALRDADEATHPAIASHMPLLVAGSAHDRLRWSFDVLVNGITRTPVPGPARGAAG | soluble
MSHHHHHHSMSKNILDMRNTVQIGIVVRDIEESLQNYAEFFGVEKPQWFWTDDYSKAHTKFNGRPTKARAKLAFFELGPLQLELIEPDENPSTWREFLDKNGEGIHHIAFVVKDMDRKVEELYRKGMKVIQKGDFEGGRYAYIDTLRALKVMIELLENY | soluble
MKYPQVWDLDTFFKGGSQSSDFQHFVKETEELVDKLVASTSAKMTLAQLVNELVNVQKVMQRLRHGAAFVSCLKAQNVKDEHAFQWQGKLNELQAKLQNIWVELEATFGRMEDGEWQELLNHPQLSDITFSLNERRQAAAEKLAPEQEKLVAQLAVDGYHAWGEVYNQAVGRMEIPFEEDGETKRLSP | not soluble
KVNNIMKKLLSSMILIWGGLISFSNNITGPRHRIEISAGFINDRQNATMGNNIFISNSISYIPEWKIQVNKKFDVTFGPKVVLNFSNFITVSNGTAKAASSSNNANPVTITPSLILGGELDFNYSVKENLKIYTGLEVGTGIGFQISTVGSNVQNPEFRTSSKIALGVKINEKYNIAIYTADIKGLLGLEAGYTF | not soluble
HVFVVDFNGSIDAKEVSSLREEVSAILSVAKPEDEVFVRLESGGGMVHGYGLASSQLDRIRQHNIPLTVSVDKVAASGGYMMACVANNIISAPFAILGSIGVIAQVPNFNKLLKKHDIDFEQFTAGEFKRTVTMFGENTEKGKEKFIEELEETHVLFKNFVSERRPSLDIVKVATGEHWFGTTALELGLVDSIQTSDD | not soluble
MEKNKLRKVGLTALEWLKQHPEIKQHKESSLYEQLFASQQWQQAQTIGMIRSLPLELSTQPIFERAMQESKQVAVPRTFKGGKMHFYQVFPETVYDTSAFGVEEPPLTAAEITATAIDLLIVPGIVFNRAGYRIGFGGGFYDRYLEHFSGHSCSLVFSEQLHEQWQPEAFDQPIEQLFIQLEHHHHHH | not soluble
MSLIAIYVRVSTEEQAIKGSSIDSQIEACIKKAGTKDVLKYADEGFSGELLERPALNRLREDASKGLISQVICYDPDRLSRKLMNQLIIDDELRKRNIPLIFVNGEYANSPEGQLFFAMRGAISEFEKAKIKERTSSGRLQKMKKGMIIKDSKLYGYKFVKEKRTLEILEEEAKIIRMIFNYFTDHKSPFFGRVNGIALHLTQMGVKTKKGEGHHHHHH | not soluble
MDAGYFRGANSEQDGRFSDKEKKLLKTMKFEPQLEQKIDLNRCNMDVIKPWITARVNDILGMEDDVVVEYILSQIDDKNLNPKLLQINVTGFLNARRAREFVGDLWNLLIEANASEDGIPASLVNQKMAEMKTNDRDEKGDDREDNDWTNRYKTLSNGRYTGPAREKAVRDDRIPARALSPRKTPPRRNASPGGDGGGGSPAARRGGSAGNRRRSPPRRGSPRRGSPRRDTRRSPPRRRGSPPARGGDRRDRREDRRPVRDEKEREEESRRREIERKKRHEEAELRQKAIASVAARAKSGSPRRRRSPSASKSPPPARRRRSPSQSKSPAPKRAKSRSKSPPAPARRRRSPSASKSPPPAPKRAKSRSKSPPARRRRSPSASKSPPAPRRRRSPSKSRSPAPKREIPPARRRRSPSASKSPPAPKRAKSRSKSPPAPRRRRSPSQSKSPAPRRRRSPSKSPQAPRRRRSPSGSKSRSPRRRRSPAAAPRRRQSPQRRRSPRRRRSPSSSSRSRSPPPPPRRPRQDSEQQAPVAVKSPEMKKRRPNDTDSDVSVDSEAEEERRRKKAKKEKKAAKKHKKEKKSKKHRKRRSPSASESGSESD | soluble
VKEIIDGFLKFQREAFPKREALFKQLATQQSPRTLFISCSDSRLVPELVTQREPGDLFVIRNAGNIVPSYGPEPGGVSASVEYAVAALRVSDIVICGHSNCGAMTAIASCQCMDHMPAVSHWLRYADSARVVNEARPHSDLPSKAAAMVRENVIAQLANLQTHPSVRLALEEGRIALHGWVYDIESGSIAAFDGATRQFVPLAANPRVCAIPLRQPTAA | soluble
PYARFQSAMFDKDTLIVSYDAERGEPRGARKKTVNKEEAGLGDCINCAMCVQVCPVGIDIRNGLQYQCIGCAACIDACDEIMDKMGYPRGL | not soluble
MGRMHNPGKGMAKSAIPYRRSVPSWQKMTAEEVQDQIVKMAKKGLRPSQIGVILRDSHGVGQVRRLAGNKIFRILKSKGMAPELPEDLYHLVKKAVAIRKHLERSRKDIDSKYRLILVESRIHRLARYYKTKRQLPPTWKYESGTAASLVS | soluble
MSLAEIRIRPLEVSALSRRLCIWADIVDASGVLLNSAPVWFDVSAMGEVWTPSTDAEKGTAVDVHPLKREFIDVAAAGIEPASRREIEGKEFSRRVESGQPITKDVLRAIPEIKNGDIVFVEVRVGTVFLRSRAEAMHDAYIGDRIKLKSVSSGETMLGVVLSAGRVWIGSEGHHHHHH | not soluble
MIDPVCGMKVDKNAKFKSTYNGKEYYFCSEHCKVEFDRNPIKYTR | not soluble
MTTHRRRPKHDPKESEQEILNAAKQFLNERPFRELTVDEVMRRTGLKRPAFYVHFRDKHDLALRLVQAIGQELFGIADRWLEGDNPQEDLRRALVGLVEVYMKHSHVLRAFAEAASGDERVNSIYRAFVQEFISAAAQHIREEQATGQIQKDIDIDETARALIWLEERYLSDVFGRMPPADPEVVIRVLQNIWISTLYGSN | soluble
MGSDKIHHHHHHGQNVHPNLPWIDISGQRERQVTIAPGRPDLYNGHPTTVMMDDHKTILCTWSYGHGGKASFIAESKDAGLTWKNGKTPADWQTMSNCPSIYKLTDKQGKERVFVFSAWPDMPMTYSEDGGKSWSPVRSLNKPCVMAFSSIVKLKNGDYLGLYHRGLNDRDRPPLTLWQSVSHDGGLTWSESVKVGEMEGRSPCEPCVFRAPDGKRLVCVARENNRVGNSLMMFSDDEGTTWSPLQKTPWGLTGDRHVIKFTPDGRMIAVFRDMAPNSPTKGHFVAWVGNYKDLLEGTSGQYKIKLLHSYAGSDCGYPGLEILPDGTIVAITYVKMRPGPEQHSIVGVRFKLEETDKMLY | not soluble
MSLNRLSIPYSNKSLDYYFFVIQEASVKRAVLARSGEFQATNANFDNTRQLEQWQSLLLSRPSAIISDPIDSQAIVSAIRRYNREKIPVGIIDTPADGGDVAITVSFDNFQGGVMAAEEIVNRLITRYGRPKGTVLNCYGALASVAWRLRKEGMDSVFAKYPGITYLARPTDGQLEKMLSVTLSTLSEYPDLDAVHAPSDSPSRGIVTALQQKGRWKKIGEAGHVIFVNIDGEPIALKWIQDGYMDACISQDPVAYGEIAVDMIVKHALKGEAVPLGTYQDKKYFWESGEIVQGKTGPTLIIPAFVINRDNVQDPRHWASVAEKTWGIPEGHHHHHH | soluble
MIKILAACGAGVNSSHQIKSALEEELSNRGYDVHCDAVMVKDVNEDLMKGYDIFTPIAATDLGFEPGIPVIEAGPILFRIPAMSVPVFDNIRLPAKQNMV | not soluble
MRNLLQKCFKWQWLVCLAVGCCFSSCKDDEESTSGYDPNKPIVLTDFYPPEGKLATQVILNGSNFGDSKENVKVFFNDKEASVISVKDDRMLVLAPKRASTIEDPECVVKVQVHEQIEEYKQTFDYYIQTTVTTLVGGSTSAQVNPTGTIPLSEAQFRANIDRCICVDQDKNVFFLVDNDGKFAAFMLNEEADKLISLKSDINALFNSPVLGYNSKDDIVYQFWANRDSHEVYYFDPKTDYAPTTAISSISWDDPNFPNIEGFGVWAAKCNFTMGPDGKMYSRMLGGNLVRIDVENARGENLTNGDLVGTKDGSAYGLVFDPQDENVFYFSNNDKHCIYKYDLRTKECACWAGQEGKSGYLDGPIGQAMFNKPGQMCVDSEGNIILTDTENHCIRKITMSTGYVSTLAGKPQNSGYVNGSAEDAQFKKPLGICIDNDDVMYIGDSENRAIRRLAVELEHHHHHH | soluble
